Target: T1, Ang2 protein (R&D systems) (human, UniProt O15123 19-496, limits assumed)
T1 sequence: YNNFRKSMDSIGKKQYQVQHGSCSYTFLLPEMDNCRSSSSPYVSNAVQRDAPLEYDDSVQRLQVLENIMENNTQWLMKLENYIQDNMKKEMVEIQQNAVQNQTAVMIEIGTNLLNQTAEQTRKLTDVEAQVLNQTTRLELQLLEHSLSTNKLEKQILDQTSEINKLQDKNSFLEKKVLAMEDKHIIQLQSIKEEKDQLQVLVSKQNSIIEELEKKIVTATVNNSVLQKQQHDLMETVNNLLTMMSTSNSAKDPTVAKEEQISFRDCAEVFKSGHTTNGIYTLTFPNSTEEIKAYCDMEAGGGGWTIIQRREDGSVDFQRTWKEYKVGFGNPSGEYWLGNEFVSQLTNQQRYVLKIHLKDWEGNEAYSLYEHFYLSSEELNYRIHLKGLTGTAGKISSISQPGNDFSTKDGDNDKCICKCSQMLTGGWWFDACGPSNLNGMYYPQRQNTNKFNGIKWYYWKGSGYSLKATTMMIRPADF
Assay: cell-based or functional assay

B1: SAIT-ANG2-AB-m10D6 (antibody, V domains shown)
VH: DVQLQESGPGLVKPSQSLSLTCTVTGYSITSDYAWNWIRQFPGNKLEWMGYINYSGNTDYNPSLKSRSSITRDTSKNQFFLQLNSVTTGDTATYYCARGNFEGAMDYWGQGTSVTVSS
VL: SIVMTQTPKFLLVSAGDRVTITCKASQSVSNDVAWYQQKPGQSPKLLIYYASNRYPGVPDRFTGSGYGTDFTFTISTVQAEDLAVYFCQQDYSSPWTFGGGTKLEIK
  Tie2 phosphorylation level (pTyr/Tie2 ratio, HUVEC, 60 nM antibody with Ang2): 180%
